From patent publication US20230051847A1 (Johns Hopkins, published 2023) come the findings set out here.

The target in one test is T1, RAS Q61WT[55-64] pHLA-A1 (human).
T1 construct: also called Q61WT pHLA-A1; H/K/N RAS WT(55-64) peptide on HLA-A1
The test can be described thus: ELISA, scDb at 10 nM on titrated biotinylated pHLA-A1 on streptavidin plate; protein L, anti-protein L HRP. For orientation: ELISA stands for enzyme-linked immunosorbent assay.

For test [1], the target named is T2, CHD4 peptide (…) on HLA-A1 (human).
T2 construct: whole, on cells; on peptide-pulsed SigM5 cells
Nature of the test: co-culture of peptide-pulsed SigM5 cells with T cells and L2-U scDb; IFNγ release.
Method: (A) Each amino acid of the G12V peptide was systematically changed to the other 19 amino acids. T2A3 cells were pulsed with 10 μM of the G12V peptide library. […] Cells were incubated for 24 hour and assayed for secreted IFNγ. […] Cells were incubated for 24 hours and assayed for secreted IFNγ. […] Cells were incubated for 24 hours and assayed for secreted IFNγ.
The library of peptides was generated by systematically substituting each amino acid of the original peptides with the other 19 amino acids. […] Recognition of the variant peptides was evaluated through IFNγ release (FIG. 44, A and B, FIG. 63, A and B). […] Next, using a 20% cognate peptide reactivity as a cutoff for permissive amino acids at each position, decamer binding motifs were generated for each candidate target peptide (Materials and Methods).

B1: L2-U scDb (bispecific antibody)
chain: DIQMTQSPSSLSASVGDRVTITCRASQDVNTAVAWYQQKPGKAPKLLIYSASFLYSGVPSRFSGSRSGTDFTLTISSLQPEDFATYYCQQAVSYPWTFGQGTKVEIKGGGGSEVQLQQSGPELVKPGASMKISCKASGYSFTGYTMNWVKQSHGKNLEWMGLINPYKGVSTYNQKFKDKATLTVDKSSSTAYMELLSLTSEDSAVYYCARSGYYGDSDWYFDVWGAGTTVTVSSGGGGSGGGGSGGGGSDIQMTQTTSSLSASLGDRVTISCRASQDIRNYLNWYQQKPDGTVKLLIYYTSRLHSGVPSKFSGSGSGTDYSLTISNLEQEDIATYFCQQGNTLPWTFAGGTKLEIKGGGGSEVQLVESGGGLVQPGGSLRLSCAASGFNISSSGIHWVRQAPGKGLEWVAMVYGGSGYTNYADSVKGRFTISADTSKNTAYLQMNSLRAEDTAVYYCSRWAHYSAYMDYWGQGTLVTVSSHHHHHH
notes: also called L2 single chain diabody; H/K/N RAS Q61L(55-64)-A1 cl.2 UCHT1 scDb
In the case of B1, the binding result in the test with RAS Q61WT[55-64] pHLA-A1 was “no binding (tested: 10 ug/mL coated pHLA-A1, scDb at 10 nM)”; in test [1], “no binding (tested: 1 nM scDb)”.
